# Measurements published in the supplement of paper PMC9170038.
# Columns and labels:
# MS2 coat protein [1] = test: apparent KD of MS2 coat protein; higher = weaker reporter binding; settings: Eterna round: R101
# Description: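 RNA-MaP: designed FMN/MS2 RNA switches (84 nt design region) are transcribed on-chip within common flanks and titrated with SNAP-549-labelled MS2 coat protein (about 1-3000 nM) in 100 mM Tris pH 7.5, 80 mM KCl, 4 mM MgCl2, without or with 200 uM FMN. Median apparent KD per design; activation ratio = KD,OFF / KD,ON.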
# MS2 coat protein [2] = test: apparent KD of MS2 coat protein, switch ON state; designed switch direction (-1 OFF switch, 1 ON switch): 1; higher = weaker reporter binding; settings: FMN input: 0 or 200 uM; Eterna round: R93 (includes R88 designs)
# Procedure, shortened: (§1)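 Illumina sequencing clusters served as templates for on-chip transcription of the designed RNA switches. SNAP-549-labelled MS2 coat protein was then titrated in twofold steps from 0.7 or 1.5 nM to 3 µM, allowing 0.8–1.5 h per step at first and 10–20 min per step later. The buffer held 100 mM Tris-HCl pH 7.5, 80 mM KCl and 4 mM MgCl2, without or with constant ligand. Apparent KD is the median per design of normalised cluster binding-curve fits.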
# MS2 coat protein [3] = test: apparent KD of MS2 coat protein, switch OFF state (with FMN for OFF switches, without FMN for ON switches); designed switch direction (-1 OFF switch, 1 ON switch): 1; higher = weaker reporter binding; settings: FMN input: 0 or 200 uM; Eterna round: R93 (includes R88 designs)
# Procedure, shortened: as §1
Sequence,apparent KD of MS2 coat protein (MS2 coat protein [1]; input ligand: FMN 200 uM) [nM],apparent KD of MS2 coat protein (MS2 coat protein [1]; input ligand: none) [nM],apparent KD of MS2 coat protein (MS2 coat protein [2]) [nM],apparent KD of MS2 coat protein (MS2 coat protein [3]) [nM]
CUGGUUGUCGUAGGAUAUGUAGGAUAUUCCUACAUGAGGAUCACCCAUGUUCGCAUGGAAGAAGGACAGAAGGACGAUGACCAC [salish99_SSNG2_013 #endbits investigation] (puzzle (switch architecture): Same State NG 2),9.19,1050,–,–
AAAUAACUCGAAGGAUAUGACCCUCGAGGUGACUAAAAGUCACCUCGAGGGUCAGAAGGUCGAGGAUCACCCGACCUAGUGAAA [#SharedSequence SLExNG1: 8] (puzzle (switch architecture): Small Loop Exclusion NG 1),65.9,10.3,–,–
AAAGAUUUUUAAGGAUAUGACUCCGAAACGGAGUCAGAAGGUGAGGAUCACCCACCUAGCUCAGCGUCGAAAGACGCUGAGCAA [#SharedSequence ExNG1 - 24] (puzzle (switch architecture): Exclusion NG 1),11,8.75,–,–
AUAAUAAUAAGAUAGGAUAUACUAAAGUAAACAUGAGGAUCACCCAUGUAAAGAAAAAAACUCAUGUAGAAGGGUCAUAAAUAAA [moonwalk 1],–,–,46.3,48.6
AACAGACAUGAGGAUCACCCAUGUAGGAUUAUGGGAGGAUAUACAAAGACGAGAGUCAGAGUAGAAGGCCUAGGAA [salish99-ss1-147],–,–,16.7,57.9
AACAGACAUGAGGAUCACCCAUGUAGAAUUAUGGGAGGAUAUACAAAGACGAGAGUCAGAGUAGAAGGCCUAGGAU [salish99-ss1-166],–,–,22.8,63.4
AUAAAUAAAAUCGAGGAUAUCCAAAAAAAAACAUGAGGAUCACCCAUGUAAAAGAAAAUAAUAUGGGAGAAGGCGAAAAAUAAAU [SS2 M 5],–,–,36.8,59.2
AUAAAUAAUGGUAAGGAUAUCCAAAAGAAAACAUGAGGAUCACCCAUGUAAAAGAAAAUAGUGUGGGAGAAGGUACCAUAUAAAU [SS2 M 15],–,–,18.6,41.6
AAAACACAUGAGGAUCACCCAUGUAAAAACAUGGGAGGAUAUGCAUGGAAAACAUGCUAUGCAGAAGGCUCAUGUG [SS1 - 6],–,–,14.9,17.2
GAGGACCUAGGAUAGGAUAUAUGAAUAAUUACAUGAGGAUCACCCAUGUCCAUUUAUAUGGGAACAUAGAAGGGUUGUGGUUAUC [SameState2 Malc#36],–,–,147,178
AAGAAACAUGAGGAUCACCCAUGUAAGAUAAACACAGGAUAUGCAAAAGAAACAAAGAAAGCAGAAGGGUGAAGAA [Mat - Same State 1 - Tesla mod - 49],–,–,17.8,48.4
"AGGAAACAUGAGGAUCACCCAUGUAGAAAAAUGGGAGGAUAUACAAAGACGAAAGUCAAAGUAGAAGGCCUAAAAG [76%, Meechl, 6]",–,–,14.5,45.8
AAUAUAUUAAGUGAGGAUAUCAAGAAAAAAACAUGAGGAUCACCCAUGUGGGAAACACGGUAGGGUGAGAAGGUACUUAAUAUAU [Samwise Clockwise 20 - Jieux - Same State 2],–,–,504,27.6
AUGAUACAUGAGGAUCACCCAUGUCACCUCACACGAGGAUAUCUGUGCAGUACUCAGUACGGAGAAGGCGUGGAAA [Same State 1.2d (Same State of Confusion2 - KL)],–,–,20.2,78.1
AGAAAUAAAAGAGAGGAUAUCCAAAACAAAACAUGAGGAUCACCCAUGUGAAAGAAAAUAAAAUGGGAGAAGGCUCAAAAUAAAG [Topaz 8],–,–,8.35,70.4
AGAAUAAAAAGACAGGAUAUCCAAAAGAAAACAUGAGGAUCACCCAUGUAAAGAAAAGAAAAAUGGGAGAAGGGUCAAAAUAAGA [Mat - Same State 2 - JL mod - D59],–,–,20.4,56.3
AGAAAUAAAAGACAGGAUAUCCAAAAGAAAACAUGAGGAUCACCCAUGUAAAAGAAAAUAAAAUGGGAGAAGGGUCAAAAUAAAG [Topaz 2],–,–,11,36.6
AAAGAAAAACUAGAGGAUAUCUGAGUGGUAACAUGAGGAUCACCCAUGUGAAGAAAGGAACAUGAGGAGAAGGCUAGAAGAAAAA [JL Nando mod 13],–,–,23.8,44.2
CGGAGACAUGAGGAUCACCCAUGUGAGAAGAGGCGAGGAUAUCGAAAGAAAGAAGAGAAACGAGAAGGCGCGAGCA [salish99-SS1-068],–,–,22.9,24.4
AAAAGACAUGAGGAUCACCCAUGUAAAAACUUGAGAGGAUAUGCUUGAAAAACAUGCUAUGCAGAAGGCUCUAGUC [SS1 - 16],–,–,21.3,28.2

Sequence,apparent KD of MS2 coat protein (MS2 coat protein [1]; input ligand: FMN 200 uM) [nM],apparent KD of MS2 coat protein (MS2 coat protein [1]; input ligand: none) [nM],apparent KD of MS2 coat protein (MS2 coat protein [2]) [nM],apparent KD of MS2 coat protein (MS2 coat protein [3]) [nM]
"AAGAAACAUGAGGAUCACCCAUGUAAAUUCGAGAGAGGAUAUCGUACAUGGAAGAUUCAACGAGAAGGCUCUAGAA [Same State 1.1 (Pariah 3, G boost at 31)]",–,–,21,79.6
AAAUAGUGCACUAAGGAUAUGUCGCAUGACACAUGAGGAUCACCCAUGUGGUAACACAGAGGGUGGCAGAAGGUAGUGUGCAAAC [Mod 2 of Pariah 6 (Round1) by Hyphema],–,–,35.7,446
AAGAAAGAAACGCAGGAUAUGCAAAACAAAACAUGAGGAUCACCCAUGUCAAACAAACAAACAAAGCAGAAGGGCGAAAGAAAGAA [Same State 2 AA],–,–,18.1,21.3
AGAAGACAUGAGGAUCACCCAUGUGGGAAUAUGGGAGGAUAUACAAAGACGAGAGUCAGAGUAGAAGGCCUAGGAC [salish99-ss1-94],–,–,30.5,81
GAAAAACAUGAGGAUCACCCAUGUGAUAAUAUGGGAGGAUAUACAAAGACGAAAGUCAAAGUAGAAGGCCUAAAAG [Garnet 35],–,–,40.5,73.2
AAGAUACAUGAGGAUCACCCAUGUUAAGAGAGAUGAGGAUAUCCGAAUUAAUUAAAUUAAGGAGAAGGCAUGAAAA [LROPPY Same State 1 - v02_deltaG=2.1],–,–,18.2,26.9
AAACAGCACAGGUAGGAUAUGUAGGGUGGUACAUGAGGAUCACCCAUGUAUCCACCCUUCGAAAGGCAGAAGGGCCUGCCGCUGC [Cealaes],–,–,15.4,16.6
AAAUAAAGGACUGAGGAUAUACCACAUGAAACAUGAGGAUCACCCAUGUUGAAAAACAGAGGGUGGUAGAAGGUAGUCCACAAAC [Same State 2.5b ( so lets mod hyphema)],–,–,21.4,51.3
AGGAAACAUGAGGAUCACCCAUGUAAAAGGUGGGUAGGAUAUGCGAAAAGAAAAAGAAAAGCAGAAGGGCCAAGAA [something completely different],–,–,41.9,133
CUGGAACAUGAGGAUCACCCAUGUCACAGAAACUGAGGAUAUGGGCGCUAACAAGCAUGACCAGAAGGCAGACACG [Mamaes],–,–,18,27.2
GAAAAACAUGAGGAUCACCCAUGUAGAAAUAUGGAAGGAUAUACGAAGACGAAAGUCAAAGUAGAAGGUCUAAAAG [Garnet 96],–,–,17,19.5
AAAAUACAUGAGGAUCACCCAUGUGAGAAAAACGCAGGAUAUGCAAAAAAAAAAAAAAAAGCAGAAGGGUGAAAAA [SameState1-I],–,–,54.8,103
AUUAGACAUGAGGAUCACCCAUGUAGGCAGUCAUGAGGAUAUGGACAAGGUGCUCAAGGUCCAGAAGGCAUACGCC [Maxeus],–,–,14.8,57.6
GAAAAACAUGAGGAUCACCCAUGUAAGAUAAACACAGGAUAUGCGAAAAUAAAUAAAUAAGCAGAAGGGUGAAGAA [Mat - Same State 1 - Tesla mod - 74],–,–,11.5,35.2
AAUACACAUGGUCAGGAUAUCGCAGCUAGGACAUGAGGAUCACCCAUGUCGUACGUAAAAGUAAAUGAGAAGGGACAGGGUGACC [JR_SS002_Sub407],–,–,37.8,30
AAGCAACAUGAGGAUCACCCAUGUAGCAGGGUCAGAGGAUAUUUGAGCUUGGUAAGGGUUAAAGAAGGUUGAUAAA [Alabeti],–,–,138,55.5
AUAUAUAUAAGGUAGGAUAUGCUAAAGUAAACAUGAGGAUCACCCAUGUAAAGAAAGAAACUCAUGUAGAAGGGCCAUAUAUAUA [viburnum 6],–,–,163,408
CGGGAAGAGAGAGAGGAUAUCCAAAGGAAAACAUGAGGAUCACCCAUGUAGAAGGUAGGAAAUUGGGAGAAGGCUCAAGAGAGAG [salish99-ss2-134],–,–,37.2,33.7
AGUCCACAUGAGGAUCACCCAUGUCUGGAGAAGACAGGAUAUAAGGAAAAAAAAAAAAACUUAGAAGGGUCAAAAA [Bexeusisus],–,–,26.8,49.5
"AAACCACAUGAGGAUCACCCAUGUCAAGAGAGACUAGGAUAUCUGAAUUAAUUAAAUUAAGGAGAAGGAGUGAAAA [71%, Same state of confusion2, 3]",–,–,52.8,179
